The Kd is the concentration at which binding is half-saturated.

Our source for the Kd values is publication PMC12533375, “Critical Role of IL1R2‐ENO1 Interaction in Inhibiting Glycolysis‐Mediated Pyroptosis for Protection Against Lethal Sepsis” (Advanced Science, 2025).

In the assay the target is T1, recombinant mouse ENO1 (rmENO1) (mouse, UniProt P17182 1-434).
T1 construct: recombinant mouse ENO1, Creative BioMart Cat. No. Eno1-244 M; The vendor's data sheet should be consulted; source: bought: Creative BioMart (Cat. No. Eno1-244 M)
T1 sequence (P17182 whole entry): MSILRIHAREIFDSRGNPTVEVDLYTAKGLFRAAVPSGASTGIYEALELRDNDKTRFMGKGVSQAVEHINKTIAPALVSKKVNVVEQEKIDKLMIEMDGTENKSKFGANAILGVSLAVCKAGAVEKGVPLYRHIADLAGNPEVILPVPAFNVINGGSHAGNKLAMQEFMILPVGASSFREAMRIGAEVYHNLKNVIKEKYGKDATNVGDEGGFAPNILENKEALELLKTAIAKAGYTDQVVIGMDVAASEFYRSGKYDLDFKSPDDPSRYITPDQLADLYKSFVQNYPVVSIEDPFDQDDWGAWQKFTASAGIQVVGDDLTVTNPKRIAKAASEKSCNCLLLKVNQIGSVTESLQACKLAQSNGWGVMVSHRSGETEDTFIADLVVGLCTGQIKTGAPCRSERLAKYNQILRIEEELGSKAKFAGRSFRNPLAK
As to the kind of experiment: SPR; OpenSPR (Nicoya); rmIL1R2 immobilised on a carboxyl sensor (EDC/NHS), rmENO1 as analyte at 12.5 to 50 nM; 40 µL/min, 20 °C; 50 mM Tris-HCl, 150 mM NaCl, 3 mM EDTA, 0.05% P20, 0.5 mM CaCl2, pH 7.4; global 1:1 fit. The settings on record: both partners purified. A general note: SPR reads the build-up and loss of mass on a sensor chip optically.

B1: recombinant mouse IL1R2 (rmIL1R2) (receptor, UniProt P27931 14-355, looked up)
chain: FTTPTVVHTGKVSESPITSEKPTVHGDNCQFRGREFKSELRLEGEPVVLRCPLAPHSDISSSSHSFLTWSKLDSSQLIPRDEPRMWVKGNILWILPAVQQDSGTYICTFRNASHCEQMSVELKVFKNTEASLPHVSYLQISALSTTGLLVCPDLKEFISSNADGKIQWYKGAILLDKGNKEFLSAGDPTRLLISNTSMDDAGYYRCVMTFTYNGQEYNITRNIELRVKGTTTEPIPVIISPLETIPASLGSRLIVPCKVFLGTGTSSNTIVWWLANSTFISAAYPRGRVTEGLHHQYSENDENYVEVSLIFDPVTREDLHTDFKCVASNPRSSQSLHTTVKE
notes: recombinant mouse IL1R2, R&D Systems Cat. No. 563-MR-100; The vendor's data sheet should be consulted; source: bought: R&D Systems (Cat. No. 563-MR-100)
Consider B1, for which the Kd was 1.99 nM.
